Target: FLAG-Sur1 (UniProt Q09427)
Test: FRET or BRET

Sequence of UniProt Q09427 (Q09427 whole entry): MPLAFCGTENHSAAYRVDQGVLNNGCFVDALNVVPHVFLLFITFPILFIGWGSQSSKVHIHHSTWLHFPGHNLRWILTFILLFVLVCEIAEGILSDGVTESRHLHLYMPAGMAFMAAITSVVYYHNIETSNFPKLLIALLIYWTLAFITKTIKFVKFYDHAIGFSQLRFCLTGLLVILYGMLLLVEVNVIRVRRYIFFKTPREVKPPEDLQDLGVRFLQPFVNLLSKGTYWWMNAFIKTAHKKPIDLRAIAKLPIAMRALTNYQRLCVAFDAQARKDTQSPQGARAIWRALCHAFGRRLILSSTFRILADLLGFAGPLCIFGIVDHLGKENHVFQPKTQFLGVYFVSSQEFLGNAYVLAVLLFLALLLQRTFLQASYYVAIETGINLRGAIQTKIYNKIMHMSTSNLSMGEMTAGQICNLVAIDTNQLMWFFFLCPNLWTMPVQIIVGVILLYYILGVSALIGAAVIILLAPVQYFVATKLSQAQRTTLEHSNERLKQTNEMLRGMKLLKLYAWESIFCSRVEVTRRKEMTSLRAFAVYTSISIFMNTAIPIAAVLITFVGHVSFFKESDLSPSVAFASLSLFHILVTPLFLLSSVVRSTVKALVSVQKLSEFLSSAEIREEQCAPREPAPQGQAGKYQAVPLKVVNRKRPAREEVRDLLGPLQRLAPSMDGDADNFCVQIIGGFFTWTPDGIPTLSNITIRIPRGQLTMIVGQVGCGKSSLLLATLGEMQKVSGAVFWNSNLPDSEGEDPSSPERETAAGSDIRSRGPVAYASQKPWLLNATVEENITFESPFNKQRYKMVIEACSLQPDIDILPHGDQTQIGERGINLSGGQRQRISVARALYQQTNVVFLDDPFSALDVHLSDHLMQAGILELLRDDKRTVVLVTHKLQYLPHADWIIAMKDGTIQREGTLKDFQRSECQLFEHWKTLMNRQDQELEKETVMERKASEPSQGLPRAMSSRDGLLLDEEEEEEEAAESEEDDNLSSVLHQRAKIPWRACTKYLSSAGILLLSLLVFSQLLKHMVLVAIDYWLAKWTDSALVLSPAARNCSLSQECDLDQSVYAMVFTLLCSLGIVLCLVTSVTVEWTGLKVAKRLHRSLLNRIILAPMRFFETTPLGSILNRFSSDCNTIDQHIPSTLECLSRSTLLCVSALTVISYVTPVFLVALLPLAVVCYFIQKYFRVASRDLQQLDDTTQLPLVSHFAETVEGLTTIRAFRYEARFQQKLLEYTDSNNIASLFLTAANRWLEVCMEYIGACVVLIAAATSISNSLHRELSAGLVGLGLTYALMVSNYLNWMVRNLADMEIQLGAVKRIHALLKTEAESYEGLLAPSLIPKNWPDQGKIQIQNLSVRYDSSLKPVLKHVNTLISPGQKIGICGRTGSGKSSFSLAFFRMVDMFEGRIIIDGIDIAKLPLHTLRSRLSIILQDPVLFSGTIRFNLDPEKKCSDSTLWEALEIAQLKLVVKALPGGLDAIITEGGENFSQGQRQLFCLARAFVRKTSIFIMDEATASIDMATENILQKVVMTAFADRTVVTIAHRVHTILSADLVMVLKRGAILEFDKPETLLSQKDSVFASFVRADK

FRET efficiency at steady state: 11%
Substance: Myc-Trpm4 (from UniProt Q7TN37-1 1-1213) (natural protein)

Source: publication PMC3561583
